Measured values from the nanobody polyreactivity screen of Harvey et al. (2022).

Assay: yeast display, Sf9 membrane polyspecificity reagent, FACS + sequencing; frameworks hold sequencing errors
Summary of the method: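 Galactose induction of a Saccharomyces cerevisiae BJ5465 synthetic nanobody display library ran 36–48 hours. The cells were then stained for 1 hour at 4 °C with 10% biotinylated, detergent-solubilized Sf9 membrane reagent, pulled down on streptavidin microbeads and FACS-sorted into low and high (top ~1%) gates on expression and reagent-binding fluorescence. Labels for polyreactivity follow the gate of origin.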

Row | Sequence | polyreactivity (PSR sort gate)
1 | QDQLVESGGGLVQAGGSLRLSCAASGIIVTYYAMGWYRQAPGKERELVAAISESGGITYYADSVKGRFTISRDNAKNTVYLQMISLKPEVTGVYYCNAEYWGYAWPYDYWGQGTQVTVSS | high polyreactivity
2 | QDQLVESGGGLVQAGGSLRLSCAASGLIFPAYTMGWSRQAQGKERELVAAISRSGGSTYYADSVKGRFTISRDNAKNTVYLQMNSLKPEDTAVYYCAAYYSGGYDYWGLGTQVTVSS | high polyreactivity
3 | QDQLVESGGGLVQAGGSLRLSCAASGLIVGDYAMGWYRQAPGKERELVAAITGSVTRTYYADSVKGRFTISRDNAKNTVYLQMNSLKPEDTAVYYCATRVHYIGFYDYDYWGQGTQVTVSS | low polyreactivity
4 | QDQLVESGGGLVQAGGSLRLSCAASGLNFVRYAMGWYRQAPGKERELVATITWSGGTYYADSVKGRFTISRDNAKNTVYLQMNSLKPEDTAVSYCAADTPTPGLFYWFYPHRGYWGQGTQVTVSS | low polyreactivity
5 | QDQLVESGGGLVQAGGSLRLSCAASGLTFPYYAMGWYRQAPGKERELVAAITWSGGTTDYADSVKGRFTISRDNAKNTVYLQMNSLKPEDTAVYYCAARFLWKGYYWGQGTQVTVSS | low polyreactivity
6 | QDQLVESGGGLVQAGGSLRLSCAASGLTFQYNAMGWYRQAPRKERELVATISQSGGSTYYADSVKGRFTISRDNAKNTVYLQMNSLKREDTAVYYCAAYRAWTWRIRYDYWGQGTQVTVSS | low polyreactivity
7 | QDQLVESGGGLVQAGGSLRLSCAASGLTIYHYAMGWYRQAPGKERELVADISSGGSTSYADSVKGRFTISRDNAKNTVYLQMNSLKPEDTAVYYCAADYTWERYHRQIFRLDYWGQGTQVTVSS | low polyreactivity
8 | QDQLVESGGGLVQAGGSLRLSCAASGNTLAANAMGWYRQAPGKERELVAAITYSGGSTYYADSVKGRFTISRDNAKNTVYLQMSSLKPEDTSVYYCNAPYVFSAGFDYWGQGTQVTVSS | low polyreactivity
9 | QDQLVESGGGLVQAGGSLRLSCAASGRFFKWYAMGWYRQAPGKEREFVAGISSSGTSTYYADSVKGRFTISRDNAKKTVSLQRNSLKPEDTAVYYCNKLGSTLDFGYWGQGTQVTVSS | high polyreactivity
10 | QDQLVESGGGLVQAGGSLRLSCAASGRIFCSYAMGWYRQAPGKERELVAAISRRGGGTYYADSVKGRFTISRENAKNTVYLQMNSLKPEDTAFYYCAKDWYGRYYYWGQGTQVTVSS | high polyreactivity
11 | QDQLVESGGGLVQAGGSLRLSCAASGRIFGFNAMGWYRQAPGKERELVAAISWRGGSTRYADSVKGRFTISRDNAKNTVYLQMNSLKPEDTAVYYCATPYADPGTVQYAGYNYWGQGTQVTVSS | high polyreactivity
12 | QDQLVESGGGLVQAGGSLRLSCAASGRIFGINAMGWYIPAPGKERELVAAINWSGGSTYYADSVKGRFTISRDNAKNTVYLQMNSLKPEDTAVYYCATYQAGYYQSTYDYWGPGTQVTVSS | high polyreactivity
13 | QDQLVESGGGLVQAGGSLRLSCAASGRIFGYYTAMGWYRQTPAKEREMVASITKSGGSTYYSDSVKGRFTITRDNAKNTVYLQKNCLKPEDTAVYYCAAAFNRYGTTSYWYRHYYWGQGTQVTVSS | high polyreactivity
14 | QDQLVESGGGLVQAGGSLRLSCAASGRIFKHNAMGWYRQAPGKERELVATISIAGRTNYADSVKGRFTISRDNAKNTVYLQMNSLKPEDTAVYYCAASTFFIHTYDYWGQGTQVTVSS | low polyreactivity
15 | QDQLVESGGGLVQAGGSLRLSCAASGRIFKYNAMGWYRQAPRKERELVAAITRGGSTNYADSVKGRFTISRDNAKNTVYFQLNSLKPEDTEVYYCAALRSRYGRDMDSWGQGTQVSVSS | high polyreactivity
16 | QDQLVESGGGLVQAGGSLRLSCAASGRIFRTYAMGWYRQAPRQERELVAAIRSGGSTKYADSVKGRFTISRDNAKNTVYLQMKSLKPEDTAVYYCAAAVLGRYSAGDGYWGQGTQVTVSS | low polyreactivity

Row | Sequence | polyreactivity (PSR sort gate)
17 | QDQLVESGGGLVQAGGSLRLSCAASGRIFSIYAMGWYRQAPGKERELVAAITRGGRTIYADSVKGRFTISRDNAKNTVYLQMNSLKPEDTAVYYCAARRIDGVVKPYDYWGQGTQVTVSS | low polyreactivity
18 | QDQLVESGGGLVQAGGSLRLSCAASGRIFTQNRMGWYRQAPGKERELVAVITSSGGSTYYADSVKGRFTISRDNAKNTVYLQMNSLKPEDTAVYYCAAQLVRYVGYYRFDYWGQGTQVTVSS | low polyreactivity
19 | QDQLVESGGGLVQAGGSLRLSCAASGRIFVVYAMGCYRQAPGKERELVAAITGGGRTNYADSVKGRFTISRENAKNTVYLQMKSLKPEDTAVYYCAAGTRSDARRYFYWGQGTQVTVSS | low polyreactivity
20 | QDQLVESGGGLVQAGGSLRLSCAASGRIFYLNAMGWYRQAPGKERELVAAINTSGDSTYYADSVKGRFTISRDIAKNTVYLQMNSLKQEDTAVYYCAAYVIGPDQFIYDYWGQGTQVTVSS | low polyreactivity
21 | QDQLVESGGGLVQAGGSLRLSCAASGRNFYRYVMGWYRQAPGKERELVAAITSSGGSTYYADSVKGRFTISRDNAKNTFYLQMNSLKPEDTAVYYCAADRYTRYRYYYWGKGTQVTVSS | high polyreactivity
22 | QDQLVESGGGLVQAGGSLRLSCAASGRTFDDYAMGWYRQAPGKERELVAAISSSGGSTYYADSVKGRFSISRDNAKNTVYLQMNCLKPDDTAVYYCAADYDWGYWYDYWGQGTQVTVSS | low polyreactivity
23 | QDQLVESGGGLVQAGGSLRLSCAASGRTFDLYAMGCYRQAPGKERELVAAITKGGGSTYYADSVKGRFTISRDNAKNTVYLQMNSLKPEDTAVYYCAARKYKRIYRISSGIGYYWGQGTQVTVSS | high polyreactivity
24 | QDQLVESGGGLVQAGGSLRLSCAASGRTFDRNAMGWYRQAPGKERELVARITIDGSTNYADSVKGRFTISRDNAKNTVYLQMNSLKPEDTAVYYCATDQLSLSWYFRPYDYGYWGQGTQVTVSS | high polyreactivity
25 | QDQLVESGGGLVQAGGSLRLSCAASGRTFRSYVMGWYRQAPGKERELVAAITTSGGSTYYADSVKGRFTISRDNAKNTVYLQMNSLKPEDTAVYYCAAEYYTYTGHYDSWYGDDYWGQGTQVTVSS | high polyreactivity
26 | QDQLVESGGGLVQAGGSLRLSCAASGRTFVAYAMGWSRQAPGKERELVARISSGGSTYYADSVKGRFTISRDNAKNTVYLQMNSLKPEDTAVYYCAADRGPYFVPWRRYDYWGQGTQVTVSS | low polyreactivity
27 | QDQLVESGGGLVQAGGSLRLSCAASGRTISGYVMGWYIQAPGKERELVATINGSGASTYYADSVKGRFTISRDNAKNTVYLQMNSLKPEDTAVYYCAAKRYRPKYEYYYWGQGTQVTVSS | high polyreactivity
28 | QDQLVESGGGLVQAGGSLRLSCAASGSIFAGNVMGWYRQAPGKERELVAAISRRGGRTYYADSVKGRFTISRDNAKNTVYLQMNSLKPEDTAVYYCAARRDPVLGKSDYWGQGTLVTVSS | high polyreactivity
29 | QDQLVESGGGLVQAGGSLRLSCAASGSIFGGYGMGWYRQAHGKERELVAAITSGSSTYYADSVKGRFTISRDNAKNTVYLQMNSLKPEDTAVYYCAARPYPNSAYEGDYWGRGTQVTVSS | low polyreactivity
30 | QDQLVESGGGLVQAGGSLRLSCAASGSIFKINAMGWYRQAPGKERELVATITWSTGTTYYADSVKGRFTISRDNAKNTVYLQMYSLKPEDTAVYYCATDGDSTKLDYWGQGTQVTVSS | low polyreactivity
31 | QDQLVESGGGLVQAGGSLRLSCAASGSIFPYNAMGWYRQAPGKERELVATISSGGSTNYADSVKGRFTISRDNAKNTVYLQMNSLKPEDTAVYYCAAVVIVFYYAPNYWGDIEYGYWGQGTQVTVSS | low polyreactivity
